Data from the nanobody polyreactivity screen of Harvey et al. (2022).

Test: yeast display, Sf9 membrane polyspecificity reagent, FACS + sequencing; frameworks hold sequencing errors
How it was run: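 Galactose-induced (36–48 hours) yeast carrying a synthetic nanobody display library were exposed to 10% biotinylated, detergent-solubilized Sf9 membrane reagent at 4 °C for 1 hour. FACS followed streptavidin microbead enrichment, using low and high (top ~1%) gates for expression (anti-HA) and reagent binding (streptavidin). Colony PCR, MiSeq 2 × 250 sequencing and CDR-length filtering followed. Labels for polyreactivity reflect the gate of origin.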

Row | Sequence | polyreactivity (PSR sort gate)
1 | QVQHVESGGGLVQAGRSLRLICAASGSIFDGNAMGWYRQAPGKERELVAAINWPGTRTYYADSVKGRFTISRDNAKNTVYLQMNSLKPEETAVYNCNKKWYPYLEHDYWGLGTQVTVSS | high polyreactivity
2 | QVQLVESGGGLVQAGGSLRLSCAASGSTSRGYAMAWYRQAPGKERELFASITLSGGNTYYADSVKGRFTISRDNAKNTVYLQMNSLKPEDTAVYYCAADDRGSSYGHFTVEYGYWGQGTQVTVSS | low polyreactivity
3 | QVHLVESGGGLVQAGGSLRLICAASGSTFWSYAMGWYRQAPGKERELVAAITSGGRTYYADSVKGRFTISRDNAKNTVYLQMNRLKPEYTAVYNCNAVVRHTYRRFDYWGQGTQVTVSS | high polyreactivity
4 | QVQLVESGGGLVQAGGSLRLSCAASGSIFGGYAMGSYRQAPGKERELVAAISSGGTTNYADSVKGRFTISRDNAKNTVYLQMNSLKPEDTAVYYCAREYGPTYQSVPVKFIQLDYWGQGTQVTVSS | low polyreactivity
5 | PLQLVESGGGLVQAGGSLRLSCAASGRTFRATTMGWYRQAPGKERELVAAISHSGGSTYYADSVKGRFTISRDNAKNTVYLQMYSLKPEDTAVYYCATDGGSYSWASPRVDYWGQGTQVTVSS | low polyreactivity
6 | QVQLVESGGGLVQAGGSLRLSCAASGFNFYRYAMGWYRQAPGKERELVAVITGRGGTTYYSDSVKGRFTISRDNAKNTVYLQMNSLKTEDTAVYYCAAPQQQSWTYDGRYGYWGQGTKVTVSS | high polyreactivity
7 | QVQLVESGGGLVQAGGSLRLSCAASGSIFYRYAMGWYRQAPGKERELVAAISSNGVSTYYADSVKGRFTISRDNAKNTVYLQMNSLKPEDTAVYYCARDVYASPRLYTSRYNYWGQGTQVTVSS | low polyreactivity
8 | QVQLVESGGGLVQAGGSLRLSCAASGFIFRYYAMGWYRQAPGKERELVAAITRGGSTYYADSVKGRFTISRDNAKNTVYLQMNSLKPEDTAVYYCAARLYTQYYYWGQGTQVTVSS | high polyreactivity
9 | QVQLVESGGGLVQAGGSLRLSCAASGITFGRYAMGWYRQAPGKERELVAAISWSGGSTYYADSVKGRFTLSRDNAKNTVYLQMNSLKPEDTAVYYCAVEWYYTSYHIRFYRDNYWGQGTQVTVSS | high polyreactivity
10 | QVQLVESGGGLVQAGGSLRLSCAASGSTFVQYAMGWYRQAPGKERELVAAITRSGGSTYYADSVKGRFTISRDNAKNTVYLQMNSLKPEDTAVYYCAARHYRSRDGYWGQGTQVTVSS | high polyreactivity
11 | QVQLVESGGGLVQAGGSLRLSCAASGSIFAIYVMGWYRQAPGKERELVAAISYRSGSTYYADSVKGRFTISRDNAKNTVYLQMNSLKPEDTAVYYCAATSRYYTFGYWGQGTQVTVSS | low polyreactivity
12 | QVQLVESVGGLVQAGCTLPLSCAASGLIFYLYAMGWYRQATGKERELVARISRGGSTNYADSVKGRFTISRDNAKNTVYLQMNSLNPDDTAVYYCAADWFFSLGEMYYWGQGTQVTVSS | low polyreactivity
13 | QVQLEESGGGLVQAGGSLRLSCAASGRTFYPYAMGWYRQAPGKEREFVARITWSGGRTYYADSVKGRFTISRDNAKNTVYLQMNSLKPEDTAVYYCAARGHDAVIATRYDYWGQGTQVTVSS | high polyreactivity
14 | QVQLVESGGGLVQAGGSLRLSCAASGRILVVNAMGWYRQAPRKERELVAAISTTGGRTYYADSVKGRFTISRDNAKNTVYLQMKSLKPEDTAVYYCSKDDGRFGRTHEHDYWGHGTQVTVSS | high polyreactivity
15 | QVQLVDSGGGLVQAGGSLRLSCAASGYIFYFNAMGWYRQAPGKEREMVAAISDRDDSTYYADSVKGRFTISRDNAKNTVYLQMNSLKPEDTAVYYCAADGYTYVDDPYDYWGQGTQVTVSS | low polyreactivity
16 | QVQLVESGGGLVQAGGSLRLSCAASGITFVKNAMGWYRQAPGKERELVARIRIGGSTSYADSVKGRFTISRDNAKNTVYLQMNSLKPEDPAVYYCARYAGRLSYRYEFWGQGTQVTLSS | high polyreactivity
17 | QVQLVESGGGLVQAGGSLRLSCAASGSIFRYYAMGWYRQAPGKERELVAVITRGGSTYYADSVKGRFTISRDNAKNTVYLQMNRLKPEDTAVYYCAADFWPAGLDRGYWGQGTQVTVSS | low polyreactivity
18 | QVQLVESGGGLVQAGGSLRLSCAASGITFRYYAMGWSRQAPGKERELVAAITRGGRTNYADSVKGRFTISRDNAKNTVYLQMNSLKPEDTAVYYCATGRDSNFGNSYYYWGQGTQVTVSS | high polyreactivity
19 | QVQLVESGGGLVQAGGSLRLSCAASGFILGHNAMGWYRQAPGKERELVSAITWRGRTYYADSVKGRFTISRDNAKNTVYLHMNSLKPEDTAVYYCASDTKFCYGYWGQGTQVTVSS | high polyreactivity
20 | QVQLVESGGGLVQAGGSLRLSCAASGGTPQNAMGWYRQAPGKDRELVAAISKRGGSTYYADSVKGRFTISRDNAKNTGYLQMNSLKPEDTAVYDCAAVSQRAQHTSEYDYWGQGTQVTVSS | high polyreactivity
21 | QVQLVESGGGLVQAGGSLRLSCAASGSTFDGYVMGWYRQAPGKEREFVAAISWSGGSTYYADSVKGRFTISRDNAKYTVYLQMNRLKREDTAVYYCAARVRRQHGYWGQGTQVTVST | high polyreactivity

Row | Sequence | polyreactivity (PSR sort gate)
22 | QVQLVESGGGLVQAGGSLRLSCAASGSIFAAYTMGWYRQAPGKERVFVAAITYTGGSTYYADSVKGRFTISRDNAKNTVYLQMNSLKPEDTAVYYCAARGRLCQGYYYWGQGTQVTVSS | low polyreactivity
23 | QVQLVESGGGLVQAGGSLRLSCAASGRIFPQNAMGWYRQAPGKERELVAVITGNGSTYYADSVKGRFTISRDNAKNTVYLQMNSLKPEDTAVYYCAARVSWPYHRGARDYWGQGTQVTVSS | low polyreactivity
24 | QVQLVESGGGLVQAGGSLRLSCAASGSTFSRYAMGWYRQAPGKERELVAAISRSGGSTYYADSVKGRFTISRDNAKNTVYLQMNSLKPEDTAVYYCAKVTTYVSAWQGNGYWGQGTQVTVSS | high polyreactivity
25 | QVQRVDSGGGLVQAGGSLRLTCAASGFTFSQYVMGWYRQAPGKARELVAAISYRGGSTYYADSVKGRFTISRDNAKNTVYVQMNSLKPEDTAVYYCAAVAYSWHNRYDYWGQGTQVTVSS | high polyreactivity
26 | QVQLVESGGGLVQAGGSLRLSCAASGRIFPVNAMGWYRQAPGKERELVATISRGGNTYYADSVKGRFTISRDNAKNTVYLQMNSLKPEDTAVYYCNVDRGNPVPPSEYWGQGTQVTVSS | low polyreactivity
27 | QVQLVESGGGLVQAGGSLRLSCAASGSILGYYAMGWYRHAPRKERELVASITGNGGSTYYADSVKGRFTISRDNAKNTVYLQMISLKPEDTAVYYCAKRVGPYKLGEYDYWGQGTQVTVSS | high polyreactivity
28 | QVQLVESGGGLVQAGGSLRLSCAASGFTFVRNAMGWYRQAPGKERELVAAISYRGGSTYYADSVKGRFTISRDNAKNTVYLQMNSLKPEDTAVYYCAAEAGYSSRRYYWGQGTQVTVSS | high polyreactivity
29 | QVQLVESGGGLVQAGGSLRLSCAASARIFWRNTMGWSRQAPGKERELVAAINYSGGRTYYADSVQGRFTISRDKAKNTVYLQMNSLKPEDTAVFDCAATPPVATNGRYYYWGQGTQVTVSS | low polyreactivity
30 | QVQLVESAGGLVQAGGSLRLSCAASGFTFSSYVMGWYRQAPGKARELVAAISSSGARTYYADSVKGRFTISRDNAKNTVYLQMNSLKPEDNADYYCAAENSPRPYDYWGQGTQVTVSS | high polyreactivity
31 | QVQLVESGGGLVQAGGSLRLSCAASGSTFKDNAMGWYRLAPGKERELVARITYRGGRTYADSVKGRFTISRDNAKNTVFLQMNSLKPEDTAVYYCAARPSLYGHNSRYDYWGQGTQVTVSS | low polyreactivity
32 | QVQLVESGVGIVQAGGSLRVSCAASGRIFYYYAMGWYRHAPGKERELVAVINSGDSTNYADSVKGRFTISRDNAKNSVYFQMNSLKPEDTAVYYCAKGVISDLDYWADYDYWGQGTQVSVSS | low polyreactivity
33 | QVQLVESGGGLVQAGGSLRLSCAASGSTIYDNAMGWYRQAPGKERELVAAITWSVGRTYYADSVKGRFTISRDNAKNTVYLQMNSLKPEDTAVYYCAARSQDRSYFQVFVSDTPYNYWGQGTQVTVSS | low polyreactivity
34 | QVQLVESGGGLVQAGGSLRLSCAASGSIFPRYAMGWYRQAPGKERELVAAITSSAGSTYYADSVKGRFTISRDNAKNTVYLQMNSLKPEDTAVYYCAASGPWSYWYDYWGQGTQVTVSS | low polyreactivity
35 | QVQLVESGGGLVQAGCSLRLSCAASGIIFGYYAMGWYRQAPVKERELVAAISSRGSRTYYSDSLKGRFTISRDNAKNTVYLQMNSLIPEDTAVYYCAVRGKFDYWGQGTQVTVSS | high polyreactivity
36 | QLQIVESGGGLVQAGGSLRLSCAASGRIFSYNAMGWYIQAPGKARELVAAITFSGGGTYYADSVKGRFTISRDNAKNTVYLQMNSLNPEYTAVYYCNKVSYGYSTYGYWGQCTQVTVSS | low polyreactivity
37 | QVQLVESGGGLVQAGGSLRLSCAASGLTFDYYAMGWYRQAPGKERELVAAIDWSGGSTYYADSVKGRFTISRDNAMNTVYFQMNSLKPEDSAVYYCATESDDSGMDYWGQGTQVTVSS | low polyreactivity
38 | QVQLVESGGGLVQAGGSLRLSCAASGRIFGVNAMGWYRQAPWKERELVAAINYSGGRTSYADSVKGRFTISRDNAKNTVYLQMNSLKPEDTAVYYCNAGGRRRIFAHSSTGDYWGQGTQVTVSS | high polyreactivity
39 | QVQHVESGGGLVQAGGSLRLSCAASGSIFYIYAMGWYRQAPGKERELVAAISGSGSTYYADSVKGRFTISRDNAKNTVYLQMNSLKPEDTAVYDCAVELWRFWGAYTYTYDYWGQGTLVTVSS | high polyreactivity
40 | QVQLVESGGGLVQAGGSLRLSCAASGSTFGRYAMGWYRQAPGKERELVAAITRSGGRTYYADSVKGRFTISRDNAKNTVYLQLNSLKPEDTAVYYCAAVGNLYYTSHWQYDYWGQGTQVTVSS | high polyreactivity
41 | QVQLVESGGGLVQAGGSLRLSCAASGFTFPLYAMGWYRQAPGKERELVAVISRSGGSTYYADSVKGRFTISRDNAKNTVYLQMNSLKPEDTAVYYCAARLVPRSPERGNYDYWGQGTQVTVSS | high polyreactivity
